Experimental data published in PMC10942606.

T1: SpPCNA (recombinant S. pombe PCNA) (S. pombe), Q03392
T1 chain: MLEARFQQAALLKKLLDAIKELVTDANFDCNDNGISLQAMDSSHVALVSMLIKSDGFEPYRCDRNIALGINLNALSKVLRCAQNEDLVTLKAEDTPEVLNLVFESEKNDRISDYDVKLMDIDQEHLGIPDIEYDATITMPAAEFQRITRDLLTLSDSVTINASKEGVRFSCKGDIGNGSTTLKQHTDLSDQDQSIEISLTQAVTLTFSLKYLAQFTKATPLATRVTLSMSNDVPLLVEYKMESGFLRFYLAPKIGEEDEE


Target: T1, SpPCNA (recombinant S. pombe PCNA) (S. …)
Assay: ITC

Binder | Kd | dH | stoichiometry N
QLKLNNFF (modifications not checked) [Pcf1_PIP peptide] | 7.1 µM | -2.9 kCal.M^–1 | 0.97
KNTAQSKPQQKSIMSFFGKK (modifications not checked) [Cdc27_PIP peptide] | 3.5 µM | -4.8 kCal.M^–1 | 0.9
